EC50 of the oxygen level for oxomer formation data for one substance are collected here from paper PMC11110689.

The assay has as its target factor inhibiting HIF (FIH), V5-tagged (FIH-V5) (UniProt Q9NWT6). Nature of the assay: immunoblot of a denaturation-resistant (SDS-PAGE) complex; cells co-transfected, 24 h at the indicated oxygen levels (18.5–1% O2), blots quantified, oxygen sensitivity calculated.
UniProt Q9NWT6, sequence (Q9NWT6 whole entry): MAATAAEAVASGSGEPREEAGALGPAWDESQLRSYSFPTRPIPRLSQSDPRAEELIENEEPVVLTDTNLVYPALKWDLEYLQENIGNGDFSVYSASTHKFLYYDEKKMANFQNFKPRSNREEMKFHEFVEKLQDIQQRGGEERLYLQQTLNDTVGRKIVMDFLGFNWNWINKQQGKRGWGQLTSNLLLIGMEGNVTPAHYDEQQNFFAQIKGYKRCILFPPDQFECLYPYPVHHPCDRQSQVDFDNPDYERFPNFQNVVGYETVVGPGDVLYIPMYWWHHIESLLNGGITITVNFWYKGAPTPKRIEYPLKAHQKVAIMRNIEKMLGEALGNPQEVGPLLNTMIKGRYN

Consider “NF-κB inhibitor β (IκBβ), FLAG-tagged (IκBβ-FLAG) (from UniProt Q15653 1-356) (natural protein)”, for which the EC50 of the oxygen level for oxomer formation was 7.6 % O2.
